Laboratory results reported in PMC10881965, “Structural optimization of siRNA conjugates for albumin binding achieves effective MCL1-directed cancer therapy”.

Molecular target: human serum albumin (Homo sapiens, UniProt P02768 25-609)
Assay: BLI; EMSA: 0.1 nmol siRNA conjugate, 5x molar excess albumin, 30 min at 37 C, 4-20% TGX gel; BLI: albumin 400 nM (or varied), buffer not in material

Chain of human serum albumin (P02768 25-609): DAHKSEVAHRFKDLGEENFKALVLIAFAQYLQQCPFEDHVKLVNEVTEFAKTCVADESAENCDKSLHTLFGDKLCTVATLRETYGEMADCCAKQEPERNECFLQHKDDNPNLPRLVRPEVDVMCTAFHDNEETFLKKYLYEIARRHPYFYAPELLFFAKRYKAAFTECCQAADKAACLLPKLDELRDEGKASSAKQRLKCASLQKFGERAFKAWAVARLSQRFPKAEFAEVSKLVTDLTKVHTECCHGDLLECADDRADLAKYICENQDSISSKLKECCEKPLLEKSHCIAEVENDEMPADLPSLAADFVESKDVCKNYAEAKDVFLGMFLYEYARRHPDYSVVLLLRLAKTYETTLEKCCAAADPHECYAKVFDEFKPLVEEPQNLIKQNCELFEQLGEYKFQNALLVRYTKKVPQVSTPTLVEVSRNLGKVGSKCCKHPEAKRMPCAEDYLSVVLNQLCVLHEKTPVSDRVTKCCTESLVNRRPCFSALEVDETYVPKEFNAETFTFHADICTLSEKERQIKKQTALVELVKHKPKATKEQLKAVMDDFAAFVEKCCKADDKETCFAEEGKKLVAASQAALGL

Row | Binder | Kd
1 | si<(EG30L)2 (dsRNA, 2'-F/2'-OMe, PS; 5' sense divalent stearyl, 30 EG per arm) RNA 1: CAAUUGCACUGAUAAUGAA RNA 2: UUCAUUAUCAGUGCAAUUG | 9.49 ± 0.1 nM
2 | si<(EG18L)2 (dsRNA, 2'-F/2'-OMe, PS; 5' sense divalent stearyl, 18 EG per arm, proximal branch) RNA 1: CAAUUGCACUGAUAAUGAA RNA 2: UUCAUUAUCAGUGCAAUUG | 30 ± 0.3 nM
